For series [1], the target named is SBT189-Dabcyl conjugate (Bacillus amyloliquefaciens (Bacillus velezensis)) (UniProt P00782). The experiment in a line: single turn-over kinetics, quenching of GFP fluorescence by Dabcyl; 0.1M KPO4, pH 7.2, 5 mM azide, 22° C.
The test system of series [2] is GA-PFRAL-S-GB.
Series [3] has as its target SBT189. To be noted: read-out: apparent KD for azide; anion binding to the enzyme-substrate complex. The source says: The acylation reaction: Step 2 describes conversion of the ternary complex into an acyl-enzyme with the concomitant release to the C-terminal portion of the substrate. With substrates used in phage display, the GB domain is released concomitantly with the acylation step. If a fluorescent reporter group is attached to subtilisin, a decrease in energy transfer enables time-dependent quantitation of acylation.

Series [4] has as its target T1, subtilisin variant SBT189 (Bacillus amyloliquefaciens (Bacillus …, UniProt P00782 108-382)).
T1 construct: Engineered subtilisin BPN' variant with D32A; also called S189; RSUB1
T1 chain: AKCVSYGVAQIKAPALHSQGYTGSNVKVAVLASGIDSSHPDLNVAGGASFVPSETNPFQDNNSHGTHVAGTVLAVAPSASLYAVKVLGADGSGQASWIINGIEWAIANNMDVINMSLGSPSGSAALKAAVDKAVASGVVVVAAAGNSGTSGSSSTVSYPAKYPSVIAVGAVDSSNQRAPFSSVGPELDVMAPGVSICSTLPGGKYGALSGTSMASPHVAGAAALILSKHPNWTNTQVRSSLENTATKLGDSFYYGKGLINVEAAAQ
The experiment in a line: transient state kinetics with the FRET peptide.

The target in series [5] is T1, subtilisin variant SBT189. The experiment in a line: complex formed at 100 µM for the activation cascade. As for the experimental part: (§1) To do this complexes of SBT189 were formed with two different prodomain inhibitors. The first complex contained 100 μM of SBT189 and prodomain variant pS156, and the second complex contained 100 μM SBT189 and prodomain variant pS170. To start the activation cascade, 10 nM wild type subtilisin was added to each complex. Wild type subtilisin is able to cleave both the loop sequence MSTM (SEQ ID NO:23) in pS156 and the loop sequence YKTM (SEQ ID NO:22) in pS170. After 5 minutes of digestion, the wild type subtilisin was inactivated by the addition of EDTA to 1 mM and heating to 55° C. for 10 minutes. Azide was then added to the reactions to 10 mM and the activity of free SBT189 subtilisin was then measured as a function of time. The release of free SBT189 from the pS156 complex occurs at a rate of about 1 days⁻¹. This is because the cleavage of the loop sequence MSTM (SEQ ID NO:23) by SBT189 is very slow. In contrast, the complete activation of SBT189 from the pS170 complex occurs within 10 minutes. Because SBT189 can readily cleave the loop sequence YKTL (SEQ ID NO:24), SBT189 is rapidly released after the self-activating chain reaction is initiated by wild type subtilisin. Thus the protease signal from the pS170 complex increases about 10⁴-fold in 10 minutes (from 10 nM to 100 μM).

For series [6], the system named is SBT189. In words: Activation cascade: release of free SBT189 from prodomain inhibitor complexes. The format is biochemical, Bacillus amyloliquefaciens. How it is done: as §1, with “days^−1.” for “days⁻¹.”, “10^4-fold” for “10⁴-fold”
The target of series [7] is GB-GFP fusion protein with cognate variation LFRAL-MA, P06654.
The target in series [8] is GB-GFP fusion protein with cognate variation LYRAL-SA, P06654.
For series [9], the target named is GB-GFP fusion protein with cognate variation LFQSL-SA, P06654.
Series [10] deals with GB-GFP fusion protein with cognate variation LFRAM-SA, P06654.
In series [11] the target is GB-GFP fusion protein with cognate variation LLRAL-SA, P06654.
The target of series [12] is GB-GFP fusion protein with cognate variation VFKAM-SG, P06654.
In series [13] the target is GB-GFP fusion protein with cognate variation LFRAY-SA, P06654.
In the next series the target is T2, prodomain variant pS170.
T2 chain: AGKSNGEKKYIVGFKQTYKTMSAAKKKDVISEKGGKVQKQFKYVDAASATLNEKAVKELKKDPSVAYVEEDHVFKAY

In another series the target is T3, prodomain variant pS156.
T3 chain: T2 chain with Y18M, K19S

Series [14] concerns the target GA-PFRAL-S-GB. The source holds these as a separate data set.
Where [15] appears, read: 100 μM complex, started with 10 nM wild type subtilisin, 10 mM azide.

These results are taken from patent US20160053248A1, “SYSTEMS AND METHODS FOR EVOLVING ENZYMES WITH DESIRED ACTIVITIES” (Potomac Affinity Proteins, LLC, priority 2009, published 2016).

Where a chain is given by its changes, count along the chain named. Numbers in names are those of the source. Primed or numbered codes have the meaning given here. No end group written: not given here. *: point of attachment. Dabcyl′ = CN(C)c1ccc(/N=N/c2ccc(C(=O)*)cc2)cc1

As for “GB-LFRAL-SA-GFP (from UniProt P06654 228-282)”, the KS in series [1] turned out to be 16 µM.

Consider “GB-GFP fusion protein with cognate variation LFQSL-SA (from UniProt P06654 228-282)”, for which, in [1], the KS is 66 µM.

With “GB-GFP fusion protein with cognate variation LFRAL-MA (from UniProt P06654 228-282)”, the KS in series [1] amounted to 24 µM.

“subtilisin synthesized as a fusion protein on the surface of M13 phage”: the “enrichment of phagemid relative to helper phage after one round of catch and release selection” value with GA-PFRAL-S-GB [2] is 350 fold enrichment.

In series [1], “GB-GFP fusion protein with cognate variation LLRAL-SA (from UniProt P06654 228-282)” came in with a KS of 670 µM.

For the molecule “GB-GFP fusion protein with cognate variation VFKAM-SG (from UniProt P06654 228-282)”, the KS in [1] was determined as 43 µM.

In the case of `[N-]=[N+]=[N-]` [azide], the Kd on SBT189 [3] was 50 mM.

Consider “GB-GFP fusion protein with cognate variation LFRAM-SA (from UniProt P06654 228-282)”, for which the KS in [1] came out at 36 µM.

The molecule “GB-GFP fusion protein with cognate variation LFRAY-SA (from UniProt P06654 228-282)” showed a KS in series [1] of 1900 µM.

Turning to “GB-GFP fusion protein with cognate variation LYRAL-SA (from UniProt P06654 228-282)”, in [1], the KS stood at 88 µM.

B1: Dabcyl-EEDKLFRAL (peptide)
peptide: {Dabcyl′}-EEDKLFRAL
notes: Acyl-side cleavage product of the FRET peptide; also called product
In the case of B1, the koff in [4] came out at 6 s⁻¹.

B2: prodomain variant pS170 (other)
chain: T2 chain
notes: M18Y, S19K, A74F, H75K against the prodomain; also called p5170
Take B2: in [5], the binding result is recorded as “binds”. Moreover, in the series on SBT189 [6] (setting [15]), the “time to complete activation of SBT189 from the complex” value is ≤ 10 min. Also, in the series with SBT189 [6] (in 10 minutes (from 10 nM to 100 μM)), the “increase of protease signal” value is “about 10^4 fold”.

B3: pS156 (protein)
chain: T2 chain with Y18M, K19S
Turning to B3, the “rate of release of free SBT189 from the complex” value with SBT189 [6] (setting [15]) is “about 1 days^−1”.

B4: SBT189-Dabcyl conjugate (protein)
chain: T1 chain
In the case of B4, the Relative k2/KS was found to be 0.027 in series [7]; 0.03 in series [8]; 0.04 in [9]; 0.32 in series [10]; 0.01 in [11]; 1 with GB-LFRAL-SA-GFP, P06654. Besides, the Relative k2/KS is 0.004 in series [12] and 0.001 in series [13]. In addition, the acylation rate (k2) was 0.06 s⁻¹ in series [7]; 0.23 s⁻¹ in series [8]; 0.23 s⁻¹ in series [9]; 1 s⁻¹ in series [10]; 0.59 s⁻¹ in [11]; 1.4 s⁻¹ in the series with GB-LFRAL-SA-GFP, P06654. Moreover, the acylation rate (k2) turned out to be 0.017 s⁻¹ in [12] and 0.17 s⁻¹ in series [13]. Also, the “activity against the cognate sequence, relative to VFKAM-SG” value with GB-LFRAL-SA-GFP, P06654 was 250-times greater.

B5: subtilisin variant SBT189 (protein)
chain: T1 chain
Turning to B5, in the series with prodomain variant pS170, the “complete activation of SBT189 from the complex” value is recorded as “occurs within 10 minutes” and the “increase of the protease signal from the complex” value is on record as “increases about 10^4-fold in 10 minutes (from 10 nM to 100 µM)”. Moreover, in the series with GB-LFRAL-SA-GFP, P06654, the “digestion of the fusion protein, protein gel and MALDI-MS” value is “The fusion protein was correctly and specifically processed to release GB-LFRAL and SA-GFP”. Moreover, the “release of free SBT189 from the complex” value with prodomain variant pS156 is recorded as “about 1 days^-1”. Besides, the “cleavage rate in the absence of azide” value in the series with GA-PFRAL-S-GB [14] is 0.12 min⁻¹.

B6: RSUB1(AF350) (protein)
chain: T1 chain
On to B6, for which, in the series with GA-PFRAL-S-GB [14], the “rate of GB release in saturating azide” value is 6.4 s⁻¹ and the “rate of GB release with no azide present” value turned out to be 0.0019 s⁻¹.

B7: wild type subtilisin (protein)
chain: AQSVPYGVSQIKAPALHSQGYTGSNVKVAVIDSGIDSSHPDLKVAGGASMVPSETNPFQDNNSHGTHVAGTVAALNNSIGVLGVAPSASLYAVKVLGADGSGQYSWIINGIEWAIANNMDVINMSLGGPSGSAALKAAVDKAVASGVVVVAAAGNEGTSGSSSTVGYPGKYPSVIAVGAVDSSNQRASFSSVGPELDVMAPGVSIQSTLPGNKYGAYNGTSMASPHVAGAAALILSKHPNWTNTQVRSSLENTTTKLGDSFYYGKGLINVQAAAQ
Turning to B7, the “cleavage of the prodomain loop” value in the series with prodomain variant pS170 and with prodomain variant pS156 was “able to cleave” in each case.
